What was measured:
Experiment in all cases: Luminex, myc-captured LEPR protein on beads, Ab 0.5 µg/mL
[1] = target: T1, recombinant human LEPR extracellular domain expressed with a C-terminal myc-myc-hexahistidine tag (human, UniProt P48357 22-839)
T1 construct: Monomeric construct; also called hLEPR.MMH; hLEPR-MMH
Procedure: (§1) Aliquots of microspheres with immobilized anti-myc monoclonal antibodies, prepared as described above, were added individually to 1 mL of the each of these protein supernatants. The microspheres were gently mixed, incubated for two hours at 25° C., washed twice with 1 mL of DBPS, centrifuged to remove the supernatant and finally resuspended in 1 mL of DPBS buffer. Forty eight μL of anti-myc IgG coupled microspheres from individual reactions with full length human LEPR and with each of the human LEPR domain proteins were withdrawn and mixed together in 3.6 mL of PBS+20 mg/mL BSA+0.05% sodium azide (blocking buffer).
(§2) From this mixed pool, 75 μL of microspheres were plated per well on a 96 well filter plate (Millipore, Cat. No: MSBVN1250) and mixed with 25 μL of individual anti-human LEPR monoclonal antibodies (0.5 or 5 μg/mL), incubated for two hours at 25° C. and then washed twice with 200 μL of DPBS with 0.05% Tween 20 (washing buffer). […] After 30 minutes, the samples were washed twice with 200 μL of washing buffer and resuspended in 150 μL of wash buffer. The Median Fluorescence intensity (MFI) of the microspheres was measured in a Luminex Analyzer.

[2] = target: T2, human LEPR CRH1 (D1,D2)-MMH (human, UniProt P48357 22-339, limits assumed)
T2 construct: domain: CRH1 (D1,D2); Transiently expressed, captured from supernatant on anti-myc beads
T2 sequence (looked up): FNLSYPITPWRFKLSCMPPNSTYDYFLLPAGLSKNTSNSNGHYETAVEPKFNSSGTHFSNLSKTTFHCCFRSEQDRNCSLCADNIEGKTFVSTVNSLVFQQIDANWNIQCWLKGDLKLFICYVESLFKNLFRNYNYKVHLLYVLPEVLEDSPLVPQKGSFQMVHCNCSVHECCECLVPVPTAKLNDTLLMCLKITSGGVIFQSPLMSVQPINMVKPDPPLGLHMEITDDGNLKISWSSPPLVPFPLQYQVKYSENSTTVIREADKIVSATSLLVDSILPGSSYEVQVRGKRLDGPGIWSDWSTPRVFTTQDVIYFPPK
Procedure: as §1, §2

[3] = target: T3, human LEPR CRH1 (D1,D2,D3)-MMH (human, UniProt P48357 22-427, limits assumed)
T3 construct: domain: CRH1-Ig (D1,D2,D3); Transiently expressed, captured from supernatant on anti-myc beads; also called CRH1-Ig (D1, D2, D3)
T3 sequence (looked up): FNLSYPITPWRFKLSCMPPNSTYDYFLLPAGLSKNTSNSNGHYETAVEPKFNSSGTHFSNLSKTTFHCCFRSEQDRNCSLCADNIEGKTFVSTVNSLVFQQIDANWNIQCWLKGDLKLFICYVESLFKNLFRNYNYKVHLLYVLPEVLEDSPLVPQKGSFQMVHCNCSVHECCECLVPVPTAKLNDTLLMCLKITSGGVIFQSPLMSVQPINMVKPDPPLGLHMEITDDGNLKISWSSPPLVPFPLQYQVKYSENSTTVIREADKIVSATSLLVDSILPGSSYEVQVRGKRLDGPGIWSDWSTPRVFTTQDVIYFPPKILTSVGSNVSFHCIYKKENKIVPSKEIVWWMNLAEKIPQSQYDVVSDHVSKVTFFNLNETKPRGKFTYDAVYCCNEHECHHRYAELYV
Procedure: as §1, §2

human LEPR CRH2-MMH = target: T4, human LEPR CRH2-MMH (human, UniProt P48357 428-634, limits assumed)
T4 construct: domain: CRH2; Transiently expressed, captured from supernatant on anti-myc beads
T4 sequence (looked up): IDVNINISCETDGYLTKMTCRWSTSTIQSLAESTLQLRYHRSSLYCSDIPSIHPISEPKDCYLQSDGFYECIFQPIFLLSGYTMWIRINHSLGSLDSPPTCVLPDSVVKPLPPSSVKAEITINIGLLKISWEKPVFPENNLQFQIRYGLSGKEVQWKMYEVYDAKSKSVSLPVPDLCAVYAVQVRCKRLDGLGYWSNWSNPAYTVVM
Procedure: as §1, §2

[4] = target: T5, human LEPR Ig-CRH2-FNIII-MMH (human, UniProt P48357 330-839, limits assumed)
T5 construct: domain: Ig-CRH2-FNIII; Transiently expressed, captured from supernatant on anti-myc beads
T5 sequence (looked up): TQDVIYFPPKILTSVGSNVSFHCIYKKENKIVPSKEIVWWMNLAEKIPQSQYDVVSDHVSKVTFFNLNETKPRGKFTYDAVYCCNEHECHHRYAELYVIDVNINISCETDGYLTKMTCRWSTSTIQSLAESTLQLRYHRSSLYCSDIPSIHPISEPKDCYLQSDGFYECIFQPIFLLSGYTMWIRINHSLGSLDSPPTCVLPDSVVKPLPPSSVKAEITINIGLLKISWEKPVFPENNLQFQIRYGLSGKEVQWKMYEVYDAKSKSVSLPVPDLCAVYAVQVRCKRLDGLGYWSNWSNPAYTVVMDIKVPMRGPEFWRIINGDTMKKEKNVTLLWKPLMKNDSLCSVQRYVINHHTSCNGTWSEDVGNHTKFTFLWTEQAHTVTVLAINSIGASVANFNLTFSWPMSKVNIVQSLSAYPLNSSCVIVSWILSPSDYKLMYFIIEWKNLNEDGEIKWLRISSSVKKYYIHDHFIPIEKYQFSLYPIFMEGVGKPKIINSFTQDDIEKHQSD
Procedure: as §1, §2

- Luminex MFI [1]: 3610 MFI
- Luminex MFI [2]: 665 MFI
- Luminex MFI [3]: 461 MFI
- Luminex MFI (human LEPR CRH2-MMH): 8 MFI
- Luminex MFI [4]: 11200 MFI
B1: H4H18462P2 (antibody, human IgG4, V domains shown)
VH: EVQLVESGGDLVQPGRSLRLSCAASGFTFSSFAMSWVRQAPGRGLEWVSSLSDSGDNTYYADSVKGRFTISRDNSKNTLYLQMNNLRAEDTAVYYCAKDLFSGWLFHGFDVWGQGTMVTVSS
VL: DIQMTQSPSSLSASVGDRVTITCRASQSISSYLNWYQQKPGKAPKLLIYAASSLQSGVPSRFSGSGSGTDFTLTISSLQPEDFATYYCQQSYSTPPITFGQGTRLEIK
notes: H4H prefix: human IgG4 Fc
